From PMC9585516, “In Vitro Demonstration of Human Lipoyl Synthase Catalytic Activity in the Presence of NFU1” (ACS Bio & Med Chem Au, 2022)

B1: human lipoyl synthase (LIAS), amino acids 28-372, holo form (enzyme)
chain: GHLSSLPDKKKELLQNGPDLQDFVSGDLADRSTWDEYKGNLKRQKGERLRLPPWLKTEIPMGKNYNKLKNTLRNLNLHTVCEEARCPNIGECWGGGEYATATATIMLMGDTCTRGCRFCSVKTARNPPPLDASEPYNTAKAIAEWGLDYVVLTSVDRDDMPDGGAEHIAKTVSYLKERNPKILVECLTPDFRGDLKAIEKVALSGLDVYAHNVETVPELQSKVRDPRANFDQSLRVLKHAKKVQPDVISKTSIMLGLGENDEQVYATMKALREADVDCLTLGQYMQPTRRHLKVEEYITPEKFKYWEKVGNELGFHYTASGPLVRSSYKAGEFFLKNLVAKRKTKDL
notes: Gly-His N-terminal appendage left after removal of the His6-SUMO tag; Holo form with two [4Fe-4S] clusters; also called holo-LIAS; source: E. coli BL21 (DE3) with pDB1282, purified under anoxic conditions (Ni-IMAC, SUMO tag removed with ULP1, SEC); not shown: His6, N-terminal, cleaved; SUMO, N-terminal, cleaved
B2: human NFU1, amino acids 59-254, holo form (domain or fragment)
chain: GHMFIQTQDTPNPNSLKFIPGKPVLETRTMDFPTPAAAFRSPLARQLFRIEGVKSVFFGPDFITVTKENEELDWNLLKPDIYATIMDFFASGLPLVTEETPSGEAGSEEDDEVVAMIKELLDTRIRPTVQEDGGDVIYKGFEDGIVQLKLQGSCTSCPSSIITLKNGIQNMLQFYIPEVEGVEQVMDDESDEKEANSP
notes: Gly-His N-terminal appendage left after removal of the His6-SUMO tag; NFU1, human, Q9UMS0 (full length 1-254), N-terminally truncated variant, amino acids 59-254; Holo form with a [4Fe-4S] cluster; also called holo-NFU1; NFUI; source: E. coli BL21 (DE3) with pDB1282, purified under anoxic conditions (Ni-IMAC, SUMO tag removed with ULP1, SEC); not shown: His6, N-terminal, cleaved; SUMO, …

What was measured:
[1] = target: B2; test: SEC; HiPrep 16/60 Sephacryl HR S-200 in an anaerobic glovebox, 0.5 mL/min; 50 mM HEPES pH 7.5, 250 mM KCl, 10% glycerol, 2.5 mM TCEP, 10 mM BME; holo-LIAS alone (100 uM), holo-NFU1 alone (200 uM) and a 1:1 mixture; masses from a calibration curve; peak fractions checked by SDS-PAGE; conditions: both partners purified
[2] = target: B1; test: ITC; 2 uL injections of LIAS (150 uM, syringe) into NFU1 (19 uM, cell) at 27 °C, anaerobic; 0.1 M HEPES pH 7.5, 0.5 M KCl, 5% glycerol, 2 mM TCEP; conditions: both partners purified

Row | stoichiometry N [1] | Kd [2] [nM] | Binder
1 | 1 | – | B1
2 | – | 700 ± 200 | B2
